Source: the nanobody polyreactivity screen of Harvey et al. (2022)

experiment: yeast display, Sf9 membrane polyspecificity reagent, FACS + sequencing; frameworks hold sequencing errors
Procedure, shortened: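 After 36–48 hours of galactose induction, yeast (Saccharomyces cerevisiae BJ5465) displaying a synthetic nanobody library were stained at 4 °C for 1 hour with 10% biotinylated, detergent-solubilized Sf9 membrane reagent. Streptavidin microbeads enriched the stained cells before FACS sorting into low and high (top ~1%) gates on anti-HA and streptavidin fluorescence. Each clone's polyreactivity label reflects its gate of origin.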

Row | Sequence | polyreactivity (PSR sort gate)
1 | QVQLVESGGGLVQAGGSLRLSCAASGFTFRYNAMGWYRQAPGKERELVAAITNSGGGTYYADSVKGRFTISRDNAKNTVYLQMNSLKPEDTAVYYCNAKRTNRYVWGKYDYWGQGTQVTVSS | high polyreactivity
2 | QVQLVESGGGLVQAGGSLRLSCAASGYTFYLYAMGWYRQAPGKERELVAAISTNGGRTYYADSVKGRFTISRDNAKNTVYLQLNSLKPEDTAVYYCAVRSRGTAPQYYYWGQGTQVTVSS | high polyreactivity
3 | QVQLVESGGGLVQAGGSLRLSCAASGRTFDVYAMGWYRQAPGKERELVAAISKRGGSTYYADSVKGRFTISRDNAKNTVYLQMNSLKPEDTAVYYCNAYQTGWKGYDYWGQGTQVTVSS | high polyreactivity
4 | QVQLVESGGGLVQAGGSLRLSCAASGSTLIVYAMGWYRQAPGKEREFVAGITVSTGSTYYADSVKGRFTISRDNAKNTVYLQMNSQKPEDTAVYYCAADIRDGWDYFLFWEDGMDYSGQGTQVTVSS | low polyreactivity
5 | QVQLEESGGGLVQAGRSLRLSCAASGRTFNAYTMGWYRQAPGKERELVAAITSSGGNTYYADSVKGRFTISRDNVKNSVSLQINSLKPEDTAVYYCTTVYLYGTHDYWGQGTQVTLSS | low polyreactivity
6 | QVQLVESGGGLVQAGGSLRLSCAASGRIIAGYAMGLYRQAPGKERELVAAISSGGSTYYADSVKGRFTISRDNAKNTVYLQMNSLKPSDTAVYYCAAGGPRVYGTKFYYCGQGTQVTVSS | high polyreactivity
7 | QVQLVESGGGLVQAGGILRLSCAASGSIFRVYAMGWYRQAPGKVRELVASISRRGGSTYYADSVKGRFTISRDNAKNTVYLQMNSLKPEDTAVYYCAATTYSGFDYCGQGTQVTVSS | high polyreactivity
8 | QVQLVESGGGLVQAGGSLRLSCAASGSNFQYVYAMGWYRQAPGKERELVAAINGGSGSTYYADSVKGSFTISRDNAKNTVYLQMNSLKPEDTAVYYCNRDYEYPTYPHDYWGQGTQVTVSS | low polyreactivity
9 | QVQLVESGGGLDQAGGSLRLSCAASGFTFTGYAMGWYRQAPGKERELVAAITRGGGSTYYADSVKGRFTISRDNAKNTVYLQMNSLKPEDTAVYYSAAQRSRLIRISSPYYGHDYWGQGTQVTVSS | low polyreactivity
10 | QVQLVESVGGLVQAGGSLRLSCAASGSTFSSYAMGWYRTAPGKERELVAALTASGGSTYYADSVKGRFTISRDNAKNTVYLQMNSLKPEDTAVYYCAAADVIFWLYYYWVQGTQVTVSS | low polyreactivity
11 | QVQLVESGGGLVQARGSLRLSCAASGRIFNYYAMGWYRQAPGKERELVAAISGSGGRTYYADSVKGRFTISRDNAKNTVYLQMNSLKPEDTAVYYCAADGVDGYDYWGLGTQVTVSS | high polyreactivity
12 | QVQLVESGGGLVQAGGSLRLSCAASGFINSDYAMGWYRPAPGKERELVAVITWRSGSTYYADSVKGRFTISRDYAKNTVYLQMNSLKPEDTAVYYCAARNYRNYSQGRRLGYNDWGQGTQVTVTS | high polyreactivity
13 | QVQLVESGGGLVQAGGSLRLSCAASGLIFSRYAMGWYRQAPGKERELVAAISTRGGSTYYADSVKGRFTISRDTAKNTVYLQMNSLKPEDTAVYYCNADIYGTFRVGQGYDYWGQGTQVTVSS | high polyreactivity
14 | QVQLVESGGGIVQAGGSLRLSCAASGFTYVYYVMGWYRQAPGKDRELVAAINAGGGSTYYADSVKGRFTNSRDIAKNTVYLQMNSLKPEDTADYYCNARVRVRLGRNWSSYYYWGQGTQVTVSS | high polyreactivity
15 | QVQLVESGGGLVQAGGSLRLRCAASGFPFDSYAMGWYRQAPGKERELVAAITSDGSTYYADSVKGRFTISRDNAKNTVYVLMNSLKPEDTAVYYCAADGISLYATAYDYWGQGTQVSVSS | low polyreactivity
16 | QVQLVESGGGLVQAGGSLRLSCAASGIIFSINAMGWDRQAPGKERELVAAISRSGGSTNYADSVKGRFTISRDNAKNTVYLQMNSLKPEDTAVYYCATVHRYSVWSHNYWGQGTQVTVAS | high polyreactivity
17 | QVQLVESGGGLVQAGGSLRLSCAASGRTFLVYAMGWYRQAPGKERELVAAITYSDGSTYYADSVKGRFTISRDNAKNTVYLQMNSLKPEDTAVYFCAADSSTFPSDYYWGKGTQVTVSS | low polyreactivity
18 | QVQLVESGGGLVQAGGSLRLSCAASGITIVNYVMGWYRQPPGKERELVAAISIGGGTYYADSVKGRFTISRDNAKNTVYLQMNSLKPEDTAVYYWNASYGGLSFYIGVYDTGYDYWGQGTQVTVSS | low polyreactivity
19 | QVQLVESGGGLVQAGGSLRLSCAASGRTFVPYAMGWYIQAPGKEREFVAAISSRVGSTYYADSVKGRFTISRDNAKNTVYLQMKSLKPEDTAVYYCNAPFKPAGFYSAWKYDYWGQGTQVSVSS | low polyreactivity
20 | QVQLVESRGGLVQAGGSLRLSCAASGITSRFYVMGWYRKAPGKERELVAAISTRGTSTYYADSVKGRFTLSRDNAKNTVYLQMNSLKPEDTAVYYCAAVGGYPYQYPYGSWGQGTQVTVSS | high polyreactivity
21 | QVQLVESGGGLVQAGGSLRLSCAASGITFPLYAMGWYRQAPGKERELVASITRGGTTNYADSVKGRFTISRDNAKNTVYLQMNSLKPEDTAVYYCAAVVTRERGYDYWGQGTQVTVSS | low polyreactivity
22 | QVQLVESGGGVVQAGGSLRLTCAASGRTFYVYAMGWYRQAPGKEREFVAAITSSGGSTYYADSVKGRFTISRDNAKNTVYLQMNSLNPEDTAVYYSDAEWSTPSYVGFADGFEYWGQGTQVTVSS | low polyreactivity

Row | Sequence | polyreactivity (PSR sort gate)
23 | QVQLVESGGGLVQAGGSLRLSCAASGRIFYQNAMGWYRPAPGKERELVADISSGGSTYYADSVKGRFTISRDNAKNTVYLQMNSVKPEDTAVYYCHTPSGPGTVGSYRRKWYGYWGQGTQVTVSS | low polyreactivity
24 | QVQLVESGGGLVQAGGSHRLSCAASGFIFYYYTRGWYRQAPGKERELVAAISRGRGSTYYADSVKGRFTISRDNAKNTVYLQMNSLKPEDTAVYYCARTDRRLGAHQGDYWGQGTQVTVSS | high polyreactivity
25 | QVQLVESGGGLVQAGGSLRLSCAASGFTFTNYAMGWYRQAPGKERELVAAINSSGSTNYADSVKGRFTISRDNAKNTVYLQMNSLKPEDTAVYYCAVDYSYWVHGFWDDYDYWGQGTQVTVSS | low polyreactivity
26 | QVQLVESGGGLVQAGGSLRLSCAASGLIFSRNAMGWYRQAPGKERELVAAISGGGGSTYYADSVKGRFTISRDNAKNNVYLQMHSLKQEATAVYDCAAKGYWWRTPWIATYDYWGQGTQVTVSS | high polyreactivity
27 | QVQLVESGGGLVQAGGSLRLSCAASGSIFYGNTMGWYRQAPGKERELVAAISSGGSTKYADSVKGRFTISRDNAKNTVYLQMNSLKPEDTAVFYCAADLPRYWVTWMDYWGQGTQVTVSS | low polyreactivity
28 | QVQLVESGGGIVQAGGSLRLSCAASGSILSTYAMGWYRQAPGKERELVDSISSNAGSTYYSDSVKGRFTISRDNAKNTVYLQMNSLKPEDSAVYYCNKVYGGGTYDYWGQGTQVTVSS | low polyreactivity
29 | QVQLVESGGGLVQAGGSLRLSCAASGSTDSNAMGWNRQAPGKEREMVAPISGTGSRTYYADSVKGRFTISRDNAKNTVYFQLNSLKTEDTAVYYCNKDVYGYSRTGPRGYDYWGQGTQVTVSS | high polyreactivity
30 | QVQLVESGGGLVQAGGSLRLSCAASGIIFNPYALGWYRHAPGKERELVATISRGGRTNYADSVKGRFTISRDNAKNTVYLQLHSLKPEDTAVYYCNKTASGRYHYDYWGQGTQVTVSS | low polyreactivity
31 | QVQLVESGGGLVQAGGSLRLSCAASGSTFLYYAMGWYRQAPGKERELVAVITGAGGTNYADSVKGRFTISRDNAKKTVYLQMNSLKPEDTAVYYCAARSPGTRWGDYDYWGQGTQVTVSS | low polyreactivity
32 | QVQLVESAGGLVQAGGSHRLSCAASGFIFDSYAMGCYRPAPGKERELVAAITYSGSSTYYADSVKGRFTISRDNAKNTVYLQMNSLKPEDTGVYYCAAVWRYSHLYGYWGQGTQVTVSS | high polyreactivity
33 | QVQLVESGGGLVQAGGSLRLSCAASGITFRHYAMGWYRQAPGKERELVAAITSRGGSTYYADSVKGRFTISRDNAKNTVYLQMNSLKPEDTAVYYCAARRRLRAPDDYWGQGTQVTVSS | high polyreactivity
34 | QVQLVESGGGLVQAGGSLRLSCAASGSIYTNAMGRYRQAPGKERELVAAISWSGGRTYYADSVKGRFTISRDNAKNTVYLQMNILKPEDTAVYYCNTRGTRIASGHYYWGQGNQVTVSS | high polyreactivity
35 | QVQLVESGGGLVQAGGSLRLSCAASGITFHYNAMGWYRQAPGKERELVAAISGSGSNTYYADSVKGRFTISRDNAKNTVYLQMNSLKPEDTAVYYCAKYYYSSNKWMDYWGQGTQVTVSP | high polyreactivity
36 | QVQRVESGGGLGQAGGSLRLSCDASGRTFSGNTMGWYRQAPVKERELVAVINSGTRTYYADSVKGRFTISRDNAKNTVYLQMYSLKPEDTAGYYCATRCKSPSSKYGYWGQGTQVNVSS | high polyreactivity
37 | QVQLVESGGGLVQAGGSLRLSCAASGLIFYYYAMGWYRQAPGKERELVAAITRGGRTYYADSVKGRFTISRDNAKNTVYLQMNSLKPEDTAVYYCNTVSVKSGLDYWGQGTQVTVSS | high polyreactivity
38 | QVQLVESGGGLFQAGGSLRLSCAASGFTSLWYGIGWYRPAPGKERELVAAITSDSSTYYADSVKGRFTISRDNAKNTVYLQMYSLKPQDTAVYSCAKYFVYVGYGRYAFWGQGTQVTVSS | low polyreactivity
39 | QVQLVESGGGLVQAGGSLRLSCAASGRTFVVYAMGWYRQAPGKERELVAVISFTGDSTFYADSVKGRFTISRDNAKNTVYLQMNSLKPEDTAVYYCAADLDWSPHFGLPYDYWGQGTQVTVSS | low polyreactivity
40 | QVQLVESGGGLVQAGGSLRLSCAASGFTLGYNVMGWYRQAPGKERELVATICWNGARTYYADSVKGRFTISRDTAKNTVYLQMNSLKPEDTAVYYCAARRYYRGEYDYWGQGTQVTVSS | low polyreactivity
41 | QVQLVESGGGLVQAGGSLRLSCAASGSTFVSYAMGWYRQAPGKERELVAAISWSGGSTYYADSVKGRFTISRDNAKNTVYLQMNSLKTEDTAVYYCAAELDWWYDYWGQGTQVTVSS | high polyreactivity
42 | QVQLVESGGGLVQAGGSLRLSCAASGRIFVTNAMGWYRQAPGKERELVAAITRGGSTNYADSVKGRFTISRDNAKNTVYLQMNSLKPEDTAVYYCAAKRRYYGPWSRIGYDYWGHGTQVTVSS | low polyreactivity
43 | PVQLVESGGGLVQAGGSLRLSCAASGRIFAQYAMGWYRQAPGNERELVADISSGVRTYAASVKGRFTISRDNAKNTVSFQMNSLKPEDTAVYYFNAYYIIFTRNDYWGQGTQVTVSS | low polyreactivity
